# Results: the Human Domainome abundance scans (Beltran et al. 2025)
# ± gives the uncertainty stated by the source.
# B1: DnaJ homolog subfamily C member 2, residues 451 to 503; numbered along this chain, Q99543 (parent)
# chain: SKNWSEDDLQLLIKAVNLFPAGTNSRWEVIANYMNIHSSSGVKRTAKDVIGKA
# Variants of: B1
# Test: abundance fitness (aPCA) (normalised: wild type 0, dead -1); higher = more abundant; growth selection in yeast, the domain comes from the species named
# Settings: Homo sapiens
row,Variant,abundance fitness
1,K52W,-0.018 ± 0.12
2,K52E,-0.006 ± 0.12
3,K52N,-0.358 ± 0.12
4,K43E,-0.096 ± 0.075
5,S39E,0.076 ± 0.074
6,D8Q,-0.559 ± 0.1
7,S5C,-0.286 ± 0.23
8,W27Y,-0.299 ± 0.11
9,W27N,-0.581 ± 0.15
10,N35C,-0.587 ± 0.081
11,V16K,0.18 ± 0.071
12,V16I,0.08 ± 0.08
13,V16C,-0.186 ± 0.081
14,V16Q,0.168 ± 0.098
15,L11Q,-0.632 ± 0.07
16,L11K,-0.747 ± 0.1
17,K2H,-0.214 ± 0.14
18,N3S,-0.234 ± 0.071
19,N3H,-0.025 ± 0.11
20,G41D,-0.066 ± 0.075
21,G41C,-0.103 ± 0.087
22,I36C,0.043 ± 0.068
23,I13G,0.099 ± 0.054
24,I13V,-0.033 ± 0.057
25,A31P,-0.837 ± 0.1

row,Variant,abundance fitness
1,A31G,-0.607 ± 0.053
2,A31L,-0.463 ± 0.059
3,G22S,0.002 ± 0.059
4,A46W,-0.348 ± 0.089
5,A15E,-0.965 ± 0.11
6,A15N,-0.984 ± 0.13
7,W4V,-0.908 ± 0.076
8,N24L,-0.116 ± 0.064
9,Q10C,-0.577 ± 0.086
10,V42I,0.093 ± 0.092
11,L9I,-0.014 ± 0.075
12,D7I,-0.19 ± 0.089
13,V29Q,0.104 ± 0.078
14,V29H,-0.096 ± 0.091
15,F19M,-0.572 ± 0.11
16,I30Y,-0.923 ± 0.13
17,A53Q,-0.081 ± 0.22
18,L18T,-0.054 ± 0.1
19,S1W,-0.721 ± 0.12
20,D48L,-0.838 ± 0.085
21,D48Y,-1.04 ± 0.19
22,D48K,-0.973 ± 0.16
23,S38F,-0.822 ± 0.079
24,S38V,-0.755 ± 0.06
25,S38H,-0.525 ± 0.094
